# Reference: US20090149339A1 (published 2009)
# Ends that are not written are not given here. * marks the point of attachment. Biotin = O=C1N[C@H]2[C@H](CS[C@H]2CCCCC(=O)*)N1
# What was measured:
# [1] = target: GST-AF6 PDZ domain fusion protein (af-6 protein AA985-1077; PDZ domain 1 of 1) (UniProt P08515 1-218 = GST); experiment: A/G assays
# [2] = target: GST-LIMK2 PDZ domain fusion protein (human LIM domain kinase 2 AA185-275; PDZ domain 1 of 1) (human, UniProt P08515 1-218 = GST); experiment: A/G assays
# Chain of GST-LIMK2 PDZ domain fusion protein (human LIM domain kinase 2 AA185-275; PDZ domain 1 of 1) (P08515 1-218, tags or fused parts left off): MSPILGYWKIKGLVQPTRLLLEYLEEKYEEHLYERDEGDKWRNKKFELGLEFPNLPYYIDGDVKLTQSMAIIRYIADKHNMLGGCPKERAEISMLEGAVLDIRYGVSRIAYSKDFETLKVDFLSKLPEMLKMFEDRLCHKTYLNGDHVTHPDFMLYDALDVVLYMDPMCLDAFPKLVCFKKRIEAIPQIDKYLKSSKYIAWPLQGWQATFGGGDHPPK
# [3] = target: T1, GST-TAX2 PDZ domain fusion protein (human tax interaction protein 2 AA54-140; PDZ domain 1 of 1) (human, UniProt P08515 1-218 = GST); experiment: A/G assays
# T1 construct: also called TX 2
# T1 sequence (P08515 1-218, tags or fused parts left off): as above
# [4] = target: GST-NOS1 PDZ domain fusion protein (human neuronal nitric oxide synthase; PDZ domain 1 of 1) (human, UniProt P08515 1-218 = GST); experiment: A/G assays
# Chain of GST-NOS1 PDZ domain fusion protein (human neuronal nitric oxide synthase; PDZ domain 1 of 1) (P08515 1-218, tags or fused parts left off): as above
# [5] = target: T2, GST-RGS12 PDZ domain fusion protein (human regulator of G-protein signalling 12 AA35-103; PDZ domain 1 of 1) (human, UniProt P08515 1-218 = GST); experiment: A/G assays
# T2 construct: also called RSG12
# T2 sequence (P08515 1-218, tags or fused parts left off): as above
# [6] = target: T3, GST-KIAA0303 PDZ domain fusion protein (KIAA0303 AA652-742; PDZ domain 1 of 1) (UniProt P08515 1-218 = GST); experiment: A/G assays
# T3 construct: also called K303
# T3 sequence (P08515 1-218, tags or fused parts left off): as above
# [7] = target: T4, GST-CASK PDZ domain fusion protein (CASK AA495-584; PDZ domain 1 of 1) (mouse, UniProt P08515 1-218 = GST); experiment: A/G assays
# T4 construct: also called mCASK
# T4 sequence (P08515 1-218, tags or fused parts left off): as above
# [8] = target: GST-LIM PDZ domain fusion protein (Human LIM protein AA29-112; PDZ domain 1 of 1) (human, UniProt P08515 1-218 = GST); experiment: A/G assays
# [9] = target: T5, GST-KIAA0559 PDZ domain fusion protein (KIAA0559 AA766-870; PDZ1 of 1) (UniProt P08515 1-218 = GST); experiment: A/G assays
# T5 construct: also called K559
# T5 sequence (P08515 1-218, tags or fused parts left off): as above
# [10] = target: GST-MINT3 PDZ domain fusion protein (human MINT3 AA11-52; PDZ domain 1 of 1) (human, UniProt P08515 1-218 = GST); experiment: A/G assays
# Chain of GST-MINT3 PDZ domain fusion protein (human MINT3 AA11-52; PDZ domain 1 of 1) (P08515 1-218, tags or fused parts left off): as above
# [11] = target: T6, GST-CBP PDZ domain fusion protein (Cytohesin binding protein HE AA85-175; PDZ domain 1 of 1) (UniProt P08515 1-218 = GST); experiment: A/G assays
# T6 construct: also called Prot
# T6 sequence (P08515 1-218, tags or fused parts left off): as above
# [12] = target: T7, GST-PSD95 PDZ domain fusion protein (human post-synaptic density protein 95 AA387-724; PDZ domains 1-3 of 3) (human, UniProt P08515 1-218 = GST); experiment: A/G assays
# [13] = target: T8, GST-MPP2 PDZ domain fusion protein (maguk p55 subfamily member 2 (DLG2) AA185-273; PDZ domain 1 of 1) (UniProt P08515 1-218 = GST); experiment: A/G assays
# T8 construct: also called MMP2
# T8 sequence (P08515 1-218, tags or fused parts left off): as above
# [14] = target: GST-prIL16 PDZ domain fusion protein (putative interleukin 16 precursor AA170-383; PDZ domains 1-2 of 2) (UniProt P08515 1-218 = GST); experiment: A/G assays
# [15] = target: GST-PTN-4 PDZ domain fusion protein (protein-tyrosine phosphatase meg1 AA774-862; PDZ domain 1 of 1) (UniProt P08515 1-218 = GST); experiment: A/G assays
# Chain of GST-PTN-4 PDZ domain fusion protein (protein-tyrosine phosphatase meg1 AA774-862; PDZ domain 1 of 1) (P08515 1-218, tags or fused parts left off): as above
# [16] = target: T9, GST-NeDLG PDZ domain fusion protein (presynaptic protein sao102, neuroendocrine-dlg; PDZ domains 1-2 of 3) (UniProt P08515 1-218 = GST); experiment: A/G assays
# T9 construct: also called NeDLG1
# T9 sequence (P08515 1-218, tags or fused parts left off): as above
# [17] = target: T10, GST-KIAA0316 PDZ domain fusion protein (KIAA0316 AA197-284; PDZ domain 1 of 1) (UniProt P08515 1-218 = GST); experiment: A/G assays
# T10 construct: also called K316
# T10 sequence (P08515 1-218, tags or fused parts left off): as above
# [18] = target: T11, GST-TAX43 PDZ domain fusion protein (human tax interaction protein 43 AA15-85; PDZ domain 1 of 1) (human, UniProt P08515 1-218 = GST); experiment: A/G assays
# T11 construct: also called TX 43
# T11 sequence (P08515 1-218, tags or fused parts left off): as above
# [19] = target: T12, GST-TAX40 PDZ domain fusion protein (human tax interaction protein 40 AA35-137; PDZ domain 1 of 1) (human, UniProt P08515 1-218 = GST); experiment: A/G assays
# T12 construct: also called TX 40
# [20] = target: GST-TIAM1 PDZ domain fusion protein (T-lymphoma invasion and metastasis inducing protein 1 AA1001-1088); PDZ 1 … (UniProt P08515 1-218 = GST); experiment: A/G assays
# Chain of GST-TIAM1 PDZ domain fusion protein (T-lymphoma invasion and metastasis inducing protein 1 AA1001-1088); PDZ 1 … (P08515 1-218, tags or fused parts left off): as above
# [21] = target: T13, GST-SYN1a PDZ domain fusion protein (alpha1-syntrophin AA96-189; PDZ domain 1 of 1) (UniProt P08515 1-218 = GST); experiment: A/G assays
# T13 construct: also called SYN 1 alpha; SYNTR 1 alpha
# T13 sequence (P08515 1-218, tags or fused parts left off): as above
# [22] = target: T14, GST-TAX33 PDZ domain fusion protein (tax interaction protein 33 AA73-162; PDZ domain 1 of 1) (UniProt P08515 1-218 = GST); experiment: A/G assays
# T14 construct: also called TX33
# T14 sequence (P08515 1-218, tags or fused parts left off): as above
# [23] = target: GST-MPP1 PDZ domain fusion protein (55 Kd erythrocyte membrane protein AA101-186; PDZ domain 1 of 1) (UniProt P08515 1-218 = GST); experiment: A/G assays
# Chain of GST-MPP1 PDZ domain fusion protein (55 Kd erythrocyte membrane protein AA101-186; PDZ domain 1 of 1) (P08515 1-218, tags or fused parts left off): as above
# [24] = target: GST-DVL1 PDZ domain fusion protein (human dishevelled segment polarity protein homolog AA248-340); PDZ domain … (human, UniProt P08515 1-218 = GST); experiment: A/G assays
# Chain of GST-DVL1 PDZ domain fusion protein (human dishevelled segment polarity protein homolog AA248-340); PDZ domain … (P08515 1-218, tags or fused parts left off): as above
# [25] = target: T15, GST-41.8 kD PDZ domain fusion protein (hypothetical 41.8 kD protein AA4-85; PDZ domain 1 of 1) (UniProt P08515 1-218 = GST); experiment: A assay
# T15 construct: also called hypoth
# T15 sequence (P08515 1-218, tags or fused parts left off): as above
# [26] = target: T15, GST-41.8 kD PDZ domain fusion protein …; experiment: A/G assays
# [27] = target: T9, GST-NeDLG PDZ domain fusion protein …; experiment: G assay
# [28] = target: T7, GST-PSD95 PDZ domain fusion protein …; experiment: A and G assays
# [29] = target: T15, GST-41.8 kD PDZ domain fusion protein …; experiment: A and G assays
# Chain of GST-AF6 PDZ domain fusion protein (af-6 protein AA985-1077; PDZ domain 1 of 1) (P08515 1-218, tags or fused parts left off): as above
Binder,binding result [1],binding result [2],binding result [3],binding result [4],binding result [5],binding result [6],binding result [7],binding result [8],binding result [9],binding result [10],binding result [11],binding result [13],binding result [14],binding result [15],binding result [17],binding result [18],binding result [19],binding result [20],binding result [21],binding result [22],other results
"Biotin-TSGTGHNQTRALRASESGI [CD97 (CD55L) C-terminal PL peptide AA14L, biotinylated]",no binding,no binding,no binding,no binding,no binding,no binding,no binding,no binding,no binding,no binding,no binding,no binding,no binding,no binding,no binding,no binding,no binding,no binding,no binding,no binding,binding result [12]: no binding; binding result [16]: no binding; binding result [23]: no binding; binding result [24]: no binding; binding result [25]: binds
"Biotin-SPQPDSTDNDDYDDISAA [CD6 C-terminal PL peptide AA6L, biotinylated]",no binding,no binding,no binding,no binding,no binding,no binding,no binding,no binding,no binding,no binding,no binding,no binding,no binding,no binding,no binding,no binding,no binding,no binding,no binding,no binding,binding result [12]: no binding; binding result [16]: no binding; binding result [23]: no binding; binding result [24]: no binding; binding result [25]: binds
"Biotin-KKGTYLTDETHREVKFTSL [CD46 (form 1) C-terminal PL peptide AA10L, biotinylated]",no binding,no binding,no binding,no binding,no binding,no binding,no binding,no binding,no binding,no binding,no binding,no binding,no binding,no binding,no binding,no binding,no binding,no binding,no binding,no binding,binding result [26]: no binding; binding result [23]: no binding; binding result [24]: no binding; binding result [27]: binds; binding result [28]: binds
"Biotin-PYGTAMEKAQLKPPATSDA [CD49E (alpha-4) C-terminal PL peptide AA11L, biotinylated]",no binding,no binding,no binding,no binding,no binding,no binding,no binding,no binding,no binding,no binding,no binding,no binding,no binding,no binding,no binding,no binding,no binding,no binding,no binding,no binding,binding result [12]: no binding; binding result [16]: no binding; binding result [23]: no binding; binding result [24]: no binding; binding result [29]: binds
